Source: the MegaScale stability set (Tsuboyama et al. 2023)

B1: EEHEE_rd4_0003 (parent)
chain: KKVTINGVEIKFNNPEEAVKFALELAKRLNLRIEFHGDQIKIE

Variants of: B1
Test: folding stability dG (cDNA display proteolysis); higher = more stable
Settings: PBS, room temperature

Folding stability dG [kcal/mol]: each site, then its substitutions
F35: L 2.2, S 1.64, E 1.63, P 1.31, Q 1.79, W 2.7
G37: S 2.35, T 2.26, K 2.47, H 2.42, N 2.41, Y 2.41, E 2.52, Q 2.44
K1: T 3.14, N 2.67, Y 3.44, A 2.84, R 2.79, F 3.5
K27: M 2.57, N 2.32, L 2.62, S 2.52, A 2.72, C 3.23, W 2.47, Q 2.47, T 2.52, R 2.79, F 2.63, G 2.39
E9: D 2.3, Y 2.58, S 2.58, T 2.98, C 3.54, G 2.12, I 2.85, N 2.19, K 2.08
K11: P 2.22, T 2.85, E 2.77, F 3.26, C 3.94, I 3, G 2.28, R 2.78, Y 3.32, H 3.03
E34: T 2.86, K 2.42, W 2.62, N 2.27, Q 2.44, D 2.12, C 3.19, I 2.93
K41: E 2.1, M 2.71, W 2.85
H36: D 2.76, C 3.21, P 1.71, E 2.58, K 2.53, M 2.72, A 2.62, Q 2.56, L 2.88
E43: F 3.59, S 2.99, Y 3.45, W 3.45, K 2.65, R 2.64, I 3.32
K2: L 2.84, S 2.92, Y 2.82, R 2.78, E 2.06, Q 2.36, V 3.28
I42: V 2.31, N 1.74, Q 1.24, T 1.38, F 2.22, K 1.43, L 3.07, P 1.27, A 1.29
D38: H 2.25, R 2.01, Q 2.25, E 2.3, I 2.49, Y 2.45, W 2.73, L 2.33, N 2.61, M 2.34
T4: L 2.95, A 2.02, F 3.25, C 3.48, D 1.7, N 2.21, Q 2.17, M 2.74
A18: P 1.64, S 1.93, T 1.88, F 2.79, R 1.72, G 2.01, Y 2.36, D 1.41
V19: W 2.98, R 2.5, S 1.86, D 1.61, C 3.56, Y 2.85, K 2.33, A 2.19, T 2.22, G 1.54
L25: Q 1.62, S 1.11, C 2.82, N 1.32, I 2.53, K 0.98, T 1.7
N30: L 2.51, Q 2.38, T 2.12, D 1.9, H 2.47, F 2.55, E 1.86, K 2.55
I5: N 1.47, A 1.71, F 2.8, V 2.47, R 1.58, C 3.46, Q 1.66, S 1.46, Y 2.71, E 1.56
E17: T 2.26, P 1.9, A 2.68, L 2.56, G 2.2, V 2.25, C 4.22, Y 2.56, H 2.23, F 2.36, Q 2.48, K 2.3, D 2.68, I 2.36
L29: M 2.38, Q 1.73, D 1.29, H 2.21, I 1.9, S 1.55, C 3.71, R 1.43, W 2.43
V3: Q 1.59, S 1.46, G 1.85, D 1.7, Y 2.26, E 1.86
N14: D 2.56, F 2.64, T 3.02
I33: R 0.847, N 0.797, A 1.69, D 0.681, M 1.92, E 0.529, L 2.35
V8: F 2.71, H 2.53, T 2.24, D 1.65, G 1.78, W 2.75, R 2.56, K 2.4, P 1.6, M 2.51
N6: L 2.87, W 3.34, M 2.65, V 2.52, T 2.01, Y 2.75, D 2.25, H 2.45, Q 2.14
F12: H 1.45, Y 1.89, W 2.14, V 1.86, A 1.48, E 0.907, P 1.14
R32: D 1.56, Q 2.1, I 2.36, V 2.33, T 2.31, H 2.24, F 2.12
K20: M 2.44
F21: N 1.27, V 1.74, G 1.16, W 2.81, T 1.56, S 1.47, M 1.88, Y 2.49, D 0.978, C 3.19, Q 1.57
E24: Y 2.73, M 2.73, P 1.47, A 2.88, Q 2.57, D 2.46, G 2.28
I10: Q 1.65, T 1.78, S 1.6, E 1.36, G 1.21, R 1.88, C 3.45, V 2.22, L 2.6, W 2.55, D 1.28
E16: R 2.6, S 2.54, N 2.43, K 2.48, C 3.56, A 2.61
P15: I 2.85, A 2.78, E 2.52, Q 2.48, R 2.79, S 2.77, H 2.84, D 2.46, Y 3.14
R28: E 2.08, C 3.28, M 2.5, H 2.22, N 1.99, Q 2.21, F 2.5, Y 2.63
N13: T 2.61, Y 2.39, R 2.84, M 2.66, D 2.73
L23: R 2.19, Q 2.13, K 2.17, V 2.29, T 2.29, Y 2.43, H 1.95
Q39: Y 3.04, H 2.91, S 2.75, F 2.91, R 2.52, K 2.33
A26: F 2.56, D 0.982, P 1.19, M 2.37, V 2.26, Y 2.29, Q 1.78, S 2.23, N 1.43
A22: V 2.74, R 1.16, M 2.59, K 1.21, T 2, C 2.79, N 0.81, I 3.21
G7: Y 2.23, P 2.01, R 1.87, M 2.2, T 1.98, I 2.84, L 2.42
L31: T 1.71, A 2.72, R 1.34, P 0.746, Y 2.14, C 2.84
I40: Y 1.64, W 2.02, R 1.25, N 1.44, D 1.39, Q 1.39
